The values below come from patent publication US20050100540A1, “Platelet-activating factor acetylhydrolase” (priority 1993, published 2005).

For series [1], the system named is zymosan A-induced foot edema. The experiment in a line: Zymosan A-induced rat foot edema. The class given is in vivo. The conditions noted are these: 2000 U IV, foot volume after 2 hours. How it is done: Six to eight-week-old female Long Evans rats (Charles River, Wilmington, Mass.), weighing 180-200 grams, were used for all experiments. Prior to experimental manipulations, animals were anesthetized with a mixture of the anesthetics Ketaset (Fort Dodge laboratories, Fort Dodge, Iowa), Rompun (Miles, Shawnee Mission, Kans.), and Ace Promazine (Aveco, Fort Dodge, Iowa) administered subcutaneously at approximately 2.5 mg Ketaset, 1.6 mg Rompun, 0.2 mg Ace Promazine per animal per dose. Edema was induced in the foot by administration of either PAF or zymosan as follows. […] Animals received 50 μl PAF (final dose of 0.96 nmoles) subcutaneously between the hind foot pads, and edema was assessed after 1 hour and again after 2 hours in some experiments. […] Animals received 50 μl of zymosan (final dose of 500 μg) subcutaneously between the hind foot pads and edema was assessed after 2 hours.
Edema was quantitated by measuring the foot volume immediately prior to administration of PAF or zymosan and at indicated time point post-challenge with PAF or zymosan. Edema is expressed as the increase in foot volume in milliliters. […]
(§1) Rats (N=4 per group) were pretreated IV with either PAF-AH (2000 U in 300 μl carrier) or carrier alone. Fifteen minutes after pretreatment, groups received either PAF or zymosan A, and foot volume was assessed after 1 and 2 hours, respectively.

A short description of series [2]: Pharmacokinetics of PAF-AH in rat circulation (double mAb capture ELISA). The class given is in vivo. The conditions noted are these: 2000 U IV, mean ±SEM. The protocol: Four rats received 2000 U of PAF-AH by IV injection in a 300 μl volume. Plasma was collected at various time points and stored at 4° C. and plasma concentrations of PAF-AH were determined by ELISA using a double mAb capture assay. In brief, monoclonal antibody 90G11D (Example 13) was diluted in 50 mM carbonate buffer pH 9.6 at 100 ng/ml and immobilized on Immulon 4 ELISA plates overnight at 4° C. After extensive washing with PBS containing 0.05/Tween 20, the plates were blocked for 1 hour at room temperature with 0.5% fish skin gelatin (Sigma) diluted in PBS. Serum samples diluted in PBS with 15 mM CHAPS were added in duplicate to the washed ELISA plate and incubated for 1 hour at room temperature. After washing, a biotin conjugate of monoclonal antibody 90F2D (Example 13) was added to the wells at a concentration of 5 μg/ml diluted in PBS and incubated for 1 hour at room temperature. After washing, 50 μl of a 1:1000 dilution of ExtraAvidin (Sigma) was added to the wells and incubated for 1 hour at room temperature. After washing, wells were developed using OPD as a substrate and quantitated. Enzyme activity was then calculated from a standard curve. […]
In general terms: ELISA stands for enzyme-linked immunosorbent assay.

A short description of series [3]: Plasma PAF-AH activity in rats of the NEC experiments. The class given is in vivo, rat. The protocol: The plasma PAF-AH activities were also determined in the rats utilized in the experiment described above. PAF-AH activity was determined as follows. Prior to the tail vein injection, blood samples were obtained. Subsequently blood samples were obtained from the vena cava just prior to the injection of PAF and at the time of sacrifice. Approximately 50 μl of blood was collected in heparinized capillaries. The plasma was obtained following centrifugation (980×g for 5 minutes). The enzyme was assayed as previously described by Yasuda and Johnston, Endocrinology, 130:708-716 (1992).

In the next series the test system is PAF-induced foot edema. Put plainly: PAF-induced rat foot edema model. Type of series: in vivo. The protocol:
Six to eight-week-old female Long Evans rats (Charles River, Wilmington, Mass.), weighing 180-200 grams, were used for all experiments. Prior to experimental manipulations, animals were anesthetized with a mixture of the anesthetics Ketaset (Fort Dodge laboratories, Fort Dodge, Iowa), Rompun (Miles, Shawnee Mission, Kans.), and Ace Promazine (Aveco, Fort Dodge, Iowa) administered subcutaneously at approximately 2.5 mg Ketaset, 1.6 mg Rompun, 0.2 mg Ace Promazine per animal per dose. Edema was induced in the foot by administration of either PAF or zymosan as follows. PAF (Sigma #P-1402) was freshly prepared for each experiment from a 19.1 mM stock solution stored in chloroform/methanol (9:1) at −20° C. Required volumes were dried down under N2, diluted 1:1000 in a buffer containing 150 mM NaCl, […] Tris pH 7.5, and 0.25% BSA, and sonicated for five minutes. Animals received 50 μl PAF (final dose of 0.96 nmoles) subcutaneously between the hind foot pads, and edema was assessed after 1 hour and again after 2 hours in some experiments. Zymosan A (Sigma #A-8800) was freshly prepared for each experiment as a suspension of 10 mg/ml in PBS. Animals received 50 μl of zymosan (final dose of 500 μg) subcutaneously between the hind foot pads and edema was assessed after 2 hours.
Edema was quantitated by measuring the foot volume immediately prior to administration of PAF or zymosan and at indicated time point post-challenge with PAF or zymosan. Edema is expressed as the increase in foot volume in milliliters. Volume displacement measurements were made on anesthetized animals using a plethysmometer (UGO Basile, model #7150) which measures the displaced water volume of the immersed foot. […] Repeated measurements of the same foot using this technique indicate the precision to be within 5%.
PAF-AH was injected locally between the foot pads, or systematically by IV injection in the tail vein. For local administration rats received 100 μl PAF-AH (4000-6000 U/ml) delivered subcutaneously between the right hind foot pads. Left feet served as controls by administration of 100 μl carrier (buffered salt solution). For systemic administration of PAF-AH, rats received the indicated units of PAF-AH in 300 μL of carrier administered IV in the tail vein. Controls received the appropriate volume of carrier IV in the tail vein.
Rats (N=4) were injected with 100 μl of PAF-AH (4000-6000 U/ml) subcutaneously between the right foot pads. Left feet were injected with 100 μl carrier (buffered salt solution). Four other rats were injected only with carrier. All rats were immediately challenged with PAF via subcutaneous foot injection and foot volumes assessed 1 hour post-challenge. FIG. 4, wherein edema is expressed as average increase in foot volume (ml)±SEM for each treatment group, illustrates that PAF-induced foot edema is blocked by local administration of PAF-AH.
Rats (N=4 per group) were pretreated IV with either PAF-AH (2000 U in 300 μl carrier) or carrier alone, 15 minutes prior to PAF challenge. Edema was assessed 1 and 2 hours after PAF challenge. FIG. 5, wherein edema is expressed as average increase in volume (ml)±SEM for each treatment group, illustrates that IV administration of PAF-AH blocked PAF induced foot edema at one and two hours post challenge. […] Mean volume increase for the PAF-AH treated group at two hours was 0.10 ml±0.08 (SEM), versus 0.56 ml±0.11 for carrier treated controls.
as §1
In two separate experiments, groups of rats (N=3 to 4 per group) were pretreated IV with either serial dilutions of PAF-AH or carrier control in a 300 μl volume, 15 minutes prior to PAF challenge. Both feet were challenged with PAF (as described above) and edema was assessed after 1 hour. […]

The nature of series [4]: Degradation of oxidized phospholipid by recombinant PAF-AH. The class given is biochemical. The conditions noted are these: oxidized phospholipid with oxidatively cleaved sn-2 fatty acid.
Where [5] appears, read: 2¼ hours after injection of 25,500 units.

B1: PAF-AH: Recombinant human plasma platelet-activating factor acetylhydrolase (beginning at Ile42) expressed in E. coli from construct pUC trp AH (protein)
chain: IQVLMAAASFGQTKIPRGNGPYSVGCTDLMFDHTNKGTFLRLYYPSQDNDRLDTLWIPNKEYFWGLSKFLGTHWLMGNILRLLFGSMTTPANWNSPLRPGEKYPLVVFSHGLGAFRTLYSAIGIDLASHGFIVAAVEHRDRSASATYYFKDQSAAEIGDKSWLYLRTLKQEEETHIRNEQVRQRAKECSQALSLILDIDHGKPVKNALDLKFDMEQLKDSIDREKIAVIGHSFGGATVIQTLSEDQRFRCGIALDAWMFPLGDEVYSRIPQPLFFINSEYFQYPANIIKMKKCYSPDKERKMITIRGSVHQNFADFTFATGKIIGHMLKLKGDIDSNVAIDLSNKASLAFLQKHLGLHKDFDQWDCLIEGDDENLIPGTNINTTNQHIMLQNSSGIEKYN
Turning to B1, in series [1], the “Effect on zymosan induced edema” value is on record as “failed to block zymosan induced edema”. Also, the “Plasma enzyme level at one hour” value in series [2] stood at 374 U/ml. Further, in series [3] (setting [5]), the “Plasma PAF-AH activity at time of sacrifice, Group 2” value came to 1771±308; the “Plasma PAF-AH activity at time of sacrifice, Group 4” value is on record as 1939±478; the “Plasma PAF-AH activity at time of sacrifice, groups 2 and 4” value is listed as 1855±257 units. For the same molecule, the “Plasma PAF-AH activity after 15 minutes” value in series [3] (2040 units IV) was 363 units per ml of plasma. For the same molecule, the “Plasma PAF-AH activity after 15 minutes, group 2” value in series [3] (25,500 units IV, 1 unit equals 1 nmoles×min^−1×ml^−1 plasma, no PAF) stood at 2249±341 units. The “Plasma PAF-AH activity after 15 minutes, group 4” value in series [3] (25,500 units IV, PAF group) is given as 2494±623 units. Further, in series [3] (less than 1,020 total units IV), the “Resultant plasma enzyme activity” value is given as ≤ 160. Moreover, the “Mean increase in volume” value in the series on PAF-induced foot edema (2000 U IV 15 minutes prior to PAF, after 1 hour, ±SEM) worked out at 0.08 ± 0.02 mL. Moreover, the Mean volume increase in the series on PAF-induced foot edema (2000 U IV 15 minutes prior to PAF, at two hours, ±SEM) is 0.10 mL. Further, in the series with PAF-induced foot edema (IV injections), the “IV dose range found to dramatically reduce PAF mediated inflammation” value was 160-2000 U/rat. Further, the ID50 dosage with PAF-induced foot edema (IV, summary of dosing studies) is listed as 40-80 U/rat. Besides, in the series with PAF-induced foot edema (PAF-AH 2000 U IV vs CV3988 or Alprazolam 2 mg IP), the “PAF-induced edema compared with PAF antagonists” value is “reduction in PAF-induced edema beyond that afforded by the established PAF antagonists CV3988 and Alprazolam”. Moreover, the “Plasma concentration predicted to block PAF-elicited edema” value in the series on PAF-induced foot edema (calculated from plasma volume for 180-200 gram rats) is recorded as 25-40 U/ml. Besides, in the series with PAF-induced foot edema (local s.c. 100 μl PAF-AH (4000-6000 U/ml), 1 hour post PAF challenge, ±SEM), the “Increase in foot volume” value was found to be 0.08 mL. For the same molecule, the “Duration of protection from PAF induced edema” value with PAF-induced foot edema (single 2000 U IV dose) is on record as “at least 24 hours”. In addition, the “Degradation of glutaroylPC” value in series [4] is reported as “rapidly degraded”.
